The values that follow come from paper PMC4528141, “Generating a Metal-responsive Transcriptional Regulator to Test What Confers Metal Sensing in Cells*”.

For the series, the target named is T1, FrmR (Salmonella enterica serovar Typhimurium …, UniProt A0A719I766 1-91).
T1 sequence: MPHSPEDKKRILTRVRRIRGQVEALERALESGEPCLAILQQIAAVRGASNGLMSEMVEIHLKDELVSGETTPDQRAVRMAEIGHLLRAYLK
The series is described as follows: fluorescence anisotropy; apo, 5 mM EDTA; 10 nM DNA; 2 tetramers:DNA, equal affinity; 10 mM HEPES pH 7.0, 60 mM NaCl, 240 mM KCl, 25 C, anaerobic; 5 mM EDTA (apo) or ZnCl2 (5 uM in text, 20 uM in Table 2). Conditions: protein: recombinant; tags: none stated (pET29a NdeI; reverse primer carries native stop); chain copies: 8; label: 5' HEX on strand 1; blunt. In general terms: Fluorescence polarisation rises when a labelled molecule tumbles more slowly, as on binding a larger partner.

B1: frmRAPro (dsDNA)
DNA 1: TTCTGATAGTATACCCCCCTATAGTATATGGAG
DNA 2: CTCCATATACTATAGGGGGGTATACTATCAGAA
In general, Kd refers to a measure of binding affinity in units of concentration. B1: the Kd turned out to be 99.4 nM.
